From paper PMC12170943 come the findings set out here.

For this data set, the system named is OmpRAc (phosphorylated by EnvZAcC) (Acidovorax citrulli xjL12 (group II)). Put plainly: MST. To be noted: EMSA: 10 mM Tris-HCl pH 7.4, 50 mM KCl, 50 mM MgCl2, 5% glycerol, room temperature 20 min, 50 ng probe in 20 uL, MST: 50 mM Tris-HCl pH 7.4, 150 mM NaCl.

For the substance PhrpG Cy5 probe (MST), the Kd is 5.72 µM.
